Data on one protein can be found in article PMC6385983, “SNZ3 Encodes a PLP Synthase Involved in Thiamine Synthesis in Saccharomyces cerevisiae” (G3: Genes|Genomes|Genetics, 2018).

One may read the Km as the concentration of substrate that gives half-maximal velocity. In general, kcat refers to the maximal rate divided by the concentration of active sites.

Substrate in the data set: O=CC(O)COP(=O)(O)O
The data set can be described thus: purified protein. The class given is biochemical, Saccharomyces cerevisiae. The following applies: 1 mM ribose-5-phosphate, 10 mM ammonium sulfate (20 mM NH4), 50 mM Tris-HCl pH 8.0, 37 °C, 85 µM Snz3p, no glutaminase subunit, racemic D/L substrate.

B1: Snz3p (Saccharomyces cerevisiae S288C) (protein)
chain: MSEFKVKTGLAQMLKGGVIMDVVTPEQAIIAERAGACAVMALERIPADMRKSGQVCRMSDPRMIKEIMEAVSIPVMAKVRIGHFVEAQILEELQVDYIDESEVLTPADWTHHIEKHNFKVPFVCGAKDLGEALRRINEGAAMIRTKGEAGTGDVSEAVKHITKIKAEIQQYKENLKTESDFAAKATELRVPVDLLKTTLSEGKLPVVNFAAGGVATPADAALLMQLGCEGVFVGSGIFKSSDPEKLACAIVEATTHYDNPAKLLQVSSDLGDLMGGISIQSINEAGGKNGARLSEIGW
notes: full-length SNZ3 in pTEV5 (NheI/NcoI), His6 tag removed with rTEV, expressed in E. coli BL21-AI; assayed without Sno glutaminase subunit
As to B1, the Michaelis-Menten constant (Km) was 290 ± 30 µM and the kcat stood at 0.0007 s⁻¹.
